No end group written: not given here.
B4: His-NogoR fusion protein (receptor, human, UniProt Q9BZR6 27-447, looked up)
chain: CPGACVCYNEPKVTTSCPQQGLQAVPVGIPAASQRIFLHGNRISHVPAASFRACRNLTILWLHSNVLARIDAAAFTGLALLEQLDLSDNAQLRSVDPATFHGLGRLHTLHLDRCGLQELGPGLFRGLAALQYLYLQDNALQALPDDTFRDLGNLTHLFLHGNRISSVPERAFRGLHSLDRLLLHQNRVAHVHPHAFRDLGRLMTLYLFANNLSALPTEALAPLRALQYLRLNDNPWVCDCRARPLWAWLQKFRGSSSEVPCSLPQRLAGRDLKRLAANDLQGCAVATGPYHPIWTGRATDEEPLGLPKCCQPDAADKASVLEPGRPASAGNALKGRVPPGDSPPGNGSGPRHINDSPFGTLPGSAEPPLTAVRPEGSEPPGFPTSGPRRRPGCSRKNRTRSHCRLGQAGSGGGGTGDSEGS
notes: Low-glycosylated fraction of about 80 kDa from CHO-K1 cells; also called soluble His-NogoR; NgR-HIS; not shown: Myc/His tag of vector pcDNA4/MycHIS A

Legend:
[1] = biological target: T1, Amyloid Aβ-1-42 oligomer (globulomer), biotinylated (UniProt P05067 672-713, biotinylated (1/5 biotin; position not stated)); experiment: HTRF competition: peptide preincubated with Aβ 1/5 biotin globulomer 800 nM, then sRAGE 1-331 added; blocked partner sRAGE
T1 construct: domain: Aβ 1-42; Concentrations are based on Aβ 1-42 monomers; also called Aβ oligomer; Aβ 1-42 oligomers

[2] = biological target: T1, Amyloid Aβ-1-42 oligomer (globulomer), …; experiment: HTRF direct binding: Aβ 1/5 biotin globulomer titrated on His-tagged sRAGE; anti-6HIS cryptate and streptavidin XL-665
[3] = biological target: T2, sRAGE-6×HIS (AA 23-352, NP_001127) (human, UniProt Q15109 23-331); experiment: AlphaScreen, biotinylated peptide on streptavidin donor beads, sRAGE-6×HIS 2.5 ng/µl on anti-HIS acceptor beads
T2 construct: range 23-352; Printed as a fusion protein with limits 23-352 on NP_001127; also called human sRAGE-6×HIS; RAGE receptor; not shown: 6×HIS tag
Description: The assay was carried out by the manufacturer's protocol in 25 mM HEPES, 100 mM NaCl of pH 7.4 and 0.1% BSA in a volume of 20 μl.
(§1) The individual components were brought together in a defined time sequence. […] The various amounts of peptide were then added in order, after a further 30 minutes, to add the donor beads. After a further 60 minutes, the fluorescence was measured in the AlphaQuest instrument from Perkin-Elmer with a time lag of one second. Each measured point was determined as triplicate. The evaluation and graphical workup of the results took place with the GraphPrism 4.0 software package.

His-NogoR fusion protein = biological target: B4; experiment: competition of AP-Nogo66 (0.1 nM) binding to coated His-NogoR
Description: (§2) This was followed by a blocking step for 1 hour with 2% strength bovine serum albumin (BSA) in Tris-HCl, pH 7.2, at room temperature. […] These stock solutions were then diluted three-fold.
(§3) After each incubation step, the plates were washed with washing buffer (10 mM Tris-HCl, pH 7.2 and 0.05% Tween20).

[4] = biological target: T2, sRAGE-6×HIS (AA 23-352, NP_001127); experiment: AlphaScreen, biotinylated peptide and sRAGE-6×HIS
Description: The entire homogeneous assay was carried out in 25 mM HEPES, 100 mM NaCl of pH 7.4 and 0.1% BSA in a volume of 20 μl.
as §1, with “analysis” for “evaluation”

[5] = biological target: T3, AP-Nogo66 (Nogo-66 with an N-terminal alkaline phosphatase tag) (human, UniProt Q9NQC3 1055-1120); experiment: competition of AP-Nogo66 (0.1 nM) binding to coated His-NogoR
T3 construct: range 1055-1120; Migrates as a dimer of about 140 kDa in gel chromatography; the AP tag induces the dimerization; also called NgR ligand AP-Nogo-66; not shown: alkaline phosphatase tag encoded by vector pAP-tag5
T3 sequence (looked up): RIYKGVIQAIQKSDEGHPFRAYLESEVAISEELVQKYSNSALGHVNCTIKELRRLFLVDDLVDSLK
Description: as §2, §3

TLQSELMVTPARGGDPRPTFSCSFSPGLPR (Synthetic 30mer) [AGER-CDP peptide 6]: binds [1].

B1: sRAGE 1-331 (recombinant human sRAGE protein) (receptor)
chain: AQNITARIGEPLVLKCKGAPKKPPQRLEWKLNTGRTEAWKVLSPQGGGPWDSVARVLPNGSLFLPAVGIQDEGIFRCQAMNRNGKETKSNYRVRVYQIPGKPEIVDSASELTAGVPNKVGTCVSEGSYPAGTLSWHLDGKPLVPNEKGVSVKEQTRRHPETGLFTLQSELMVTPARGGDPRPTFSCSFSPGLPRHRALRTAPIQPRVWEPVPLEEVQLVVEPEGGAVAPGGTVTLTCEVPAQPSPQIHWMKDGVPLPLPPSPVLILPEIGPQDQGTYSCVATHSSHGPQESRAVSISIIEPGEEGPTAGGTKLGPEQKLISEEDLNSAVDHHHHHH
notes: His-tagged, from HEK 293 line 293/6.1 sRAGE His 6 (vector pcDNA3.1(-) Myc HIS); also called sRAGE-HIS
B1: binds [2].

B2: AlterCharge1 (peptide)
peptide: FSRIRATHWRVDG
modifications: also: biotinylated, position not given here
notes: Control 13mer with four positive charges
For B2, the “EC50 (read off the curve)” value [3] was ~50 nM.

B3: N-terminally truncated sRAGE (sRAGE 102-331) (receptor)
chain: MNRNGKETKSNYRVRVYQIPGKPEIVDSASELTAGVPNKVGTCVSEGSYPAGTLSWHLDGKPLVPNEKGVSVKEQTRRHPETGLFTLQSELMVTPARGGDPRPTFSCSFSPGLPRHRALRTAPIQPRVWEPVPLEEVQLVVEPEGGAVAPGGTVTLTCEVPAQPSPQIHWMKDGVPLPLPPSPVLILPEIGPQDQGTYSCVATHSSHGPQESRAVSISIIEPGEEGPTAGARGGPEQKLISEEDLNSAVDHHHHHH
notes: His-tagged, expressed from psecTAG 2A; no longer has a functional V domain
B3: binds [2].

In the case of QNITARIGEPLVLKCKGAPKKPPQRLEWKLN (also: biotin label in some assays, position not given here, also called Nterm 31; Nterm31) [NtermR31], the IC50 (His-NogoR fusion protein) is reported as 50 nM.

For CKGAPKKPPQRLE (also: biotinylated, position not given here (AlphaScreen assays only), also called Nterm 13) [NtermR13], the EC50 [4] was 66 nM.

With LPRHRALRTAPIQPRVWEPVPLEEVQLVVE (Synthetic 30mer) [AGER-CDP peptide 7] the “IC50 (read off the curve)” value [1] was ~4000 nM.

B4 was tested, and the IC50 [5] was 2 nM.
